Results taken from patent US6919309B2, “Methods and compositions for inhibiting angiogenesis” (Northwestern University, priority 1997, dated 2005).
Entries after “also recorded” stand apart in the source; their conditions may differ.

How the values were obtained:
[1] = system: SK-N-BE(2) and SK-N-SH neuroblastoma cells; assay: Differentiation of cultured human neuroblastoma cells (neurite outgrowth); assay type: cell-based; conditions: in vitro, 24 hours, purified histidine tagged PEDF; FIGS. 9, 10
Protocol: In vitro experiments were conducted to verify the effect of PEDF on cell lines derived from neuroblastoma tumors. Two neuroblastoma derived cell lines were obtained from the American Tissue Type and Culture, SK-N-BE(2) and SK-N-SH. Both cell lines were maintained in culture in DMEM containing 10% fetal bovine serum (Flow Laboratories, McLean, Va.) in 37° C. and 5% CO2. Cells (1.25×10^4/ml) were resuspended, and 1 ml/well was used to seed 24 well plates. Twenty-four hours later, PEDF was added to triplicate wells at […] , 0.75, 1 or 10 nM, and the cells were incubated for an additional 24 hours. The percentage of differentiated cells was determined by counting the total number of cells in three non-overlapping 1 mm^2 areas per well.

[2] = system: WI-38 fibroblasts, human foreskin fibroblasts, vascular smooth muscle cells, human neutrophils; assay: Migration assay with non-endothelial cells; assay type: cell-based; conditions: PEDF 0.01 nM to about 50 nM; inducers IL-8 or PDGF; FIGS. 2A-2D
Protocol: The ability of PEDF to prevent migration of fibroblasts or smooth muscle was tested using cells obtained from human diploid fibroblast cell line WI-38, human foreskin fibroblasts, vascular smooth muscle, and normal human neutrophils.
The assay was performed as indicated in Example 1, except that the dose of PEDF varied from 0.01 nM to about 50 nM and that the migration assay was performed without inverting the chambers. Moreover, the inducer of migration varied with the cell type (IL-8 was used at 1 μg/ml and PDGF was used at 250 pg/ml).

[3] = system: skin of athymic (nude/nude) mice; assay: Hair follicle density in skin of athymic nude mice after PEDF injection; assay type: in vivo, mouse; conditions: 2 μg purified PEDF daily for four days into tumors; FIG. 8
Protocol: FIG. 8, comprising FIGS. 8A, 8B and 8C, is a series of images of photomicrographs of sections of skin obtained from animals treated with PEDF, wherein hair follicles are depicted. Human neuroblastoma tumors growing subcutaneously in nude mice were injected at 2-3 sites/tumor for four consecutive days with 2 μg of purified PEDF. On the fifth day, hair was noticed growing over the treated tumors. […] Similar increases in hair follicle density have been seen in the absence of tumors following injection of purified PEDF.
The treatment consisted of injecting a total of 2 μg of purified histidine-tagged PEDF in a volume of 100 μl of phosphate buffered saline into 2-3 sites/tumor each day for 4 consecutive days. On the fifth day, a small area of increased hair growth was noticed over the injection sites. The mice were euthanized using an overdose of metaphane, and the tumors were surgically removed. Tumor tissue was sliced and placed in buffered formalin for at least 24 hours. Tissue was embedded in paraffin and prepared for histologic examination. The skin overlying neuroblastoma tumors treated with PEDF had increased hair follicle density when compared with the skin overlying tumors injected with saline vehicle (FIG. 8). Similar increases in hair follicle density have been seen in the absence of tumors following injection of purified PEDF.

[4] = system: bovine adrenal capillary endothelial cells; assay: Endothelial cell migration assay (modified Boyden chamber), bovine adrenal capillary endothelial cells; assay type: cell-based
Protocol: The cells were plated on gelatinized Nucleopore membranes (5 μm pores for bovine capillary cells and 8 μm pores for other cells) in an inverted modified Boyden chamber. After two hours, the chamber was reinverted and test substances added to the top wells of each. Specifically, populations were exposed to either culture medium alone (control), 10 ng/ml bFGF, 2 nM PEDF (full length PEDF), or both 10 ng/ml bFGF (basic fibroblast growth factor) and 10 nM PEDF. The cells were then permitted to migrate for 3-4 hours. Following this, the membranes were fixed and stained, and the number of cells that had migrated were counted.
The amount of a given factor necessary to achieve 50% of migration was determined and is reported here as ED50.
In particular, aFGF was employed at a concentration of 50 ng/ml, bFGF was employed at a concentration of 10 ng/ml, IL-8 was employed at a concentration of 40 ng/ml, PDGF was employed at a concentration of 250 pg/ml, and VEGF was employed at a concentration of 100 pg/ml.
In studies aimed at identifying antiangiogenic factors in the eye that might be regulated by the retinoblastoma tumor suppressor gene (Rb), media was fractionated where the media was previously conditioned by a retinoblastoma cell line that had been infected with a retrovirus expressing the wild-type Rb gene, WERI-Rb-27R. (Xu et al., 1991, Cancer Res. 51:4481). […] PEDF was purified from WERI-Rb-27R serum-free conditioned media by sequential steps consisting of dialysis (molecular mass cutoff, 30 kD) against distilled water, 60 to 95% ammonium sulfate precipitation, step elution from lentil lectin Sepharose 4B (Pharmacia) with 0.5 M α-methyl-D-mannopyranoside, and elution from a HiTrap heparin Sepharose column (Pharmacia) with increasing NACl gradient. (Xu, et al., 1991, Cancer Res. 51:4481). […] Migration assays were performed in quadruplicate for each sample with bovine adrenal capillary endothelial cells or human dermal microvascular endothelial cells (Clonetics, San Diego, Calif.) as described. (Polverini, et al., 1991, Methods Enzymol. 198:440). To combine multiple experiments, background migration (Bkgd) was first subtracted toward vehicle (0.1% bovine serum albumin) and them normalized data by setting maximum migration toward inducer alone to 100%. All experiments were repeated two to five times. Statistics were performed on raw data before normalization with the Student's t test. Standard errors were converted to percentages. […] Single-letter abbreviations for the amino acid residues are as follows: A, Ala; D, Asp; E. Glu; F. Phe; G, Gly; I, Ile; L, Leu; M, Met; P, Pro; Q, Gln; R, Arg; S, Ser; T, Thr; V, Val; X, any amino acid; and Y, Tyr.

SK-N-BE(2) tumors = assay: Differentiation of human neuroblastoma tumors in athymic mice (neurofilament staining); assay type: in vivo, mouse; conditions: 2 μg PEDF per day intratumoral, 4 days
Protocol: In vivo experiments were conducted to determine the effect of PEDF on neuroblastoma tumors. […] When the tumors grew to a palpable size (approximately 8 mm in diameter) PEDF treatment was started. A total of 2 μg of purified histidine-tagged PEDF in a volume of 100 μl of phosphate buffered saline was injected into 2-3 sites/tumor each day for 4 consecutive days. On the fifth day, the mice were euthanized by an overdose of metaphane, and the tumors were surgically removed. Tumor tissue was sliced and placed in buffered formalin for at least 24 hours. Tissue was embedded in paraffin and prepared for histologic examination. Sections were stained with an antibody that recognized neurofilament protein (Dako, Carpinteria, Calif.). […] A total of six SK-N-BE(2) tumors were treated with PEDF and 6/6 were moderately to strongly positive for neurofilament staining.

B1: PEDF: full length pigment epithelium derived growth factor, SEQ ID NO:1; purified from WERI-Rb-27R medium or recombinant histidine-tagged (protein, listed as Homo Sapiens)
chain: MQALVLLLCIGALLGHSSCQNPASPPEEGSPDPDSTGALVEEEDPFFKVPVNKLAAAVSNFGYDLYRVRSSMSPTTNVLLSPLSVATALSALSLGADERTESIIHRALYYDLISSPDIHGTYKELLDTVTAPQKNLKSASRIVFEKKLRIKSSFVAPLEKSYGTRPRVLTGNPRLDLQEINNWVQAQMKGKLARSTKEIPDEISILLLGVAHFKGQWVTKFDSRKTSLEDFYLDEERTVRVPMMSDPKAVLRYGLDSDLSCKIAQLPLTGSMSIIFFLPLKVTQNLTLIEESLTSEFIHDIDRELKTVQAVLTVPKLKLSYEGEVTKSLQEMKLQSLFDSPDFSKITGKPIKLTQVEHRAGFEWNEDGAGTTPSPGLQPAHLTFPLDYHLNQPFIFVLRDTDTGALLFIGKILDPRGP
differentiation of neuroblastoma cells [1]: triggered differentiation of the cells | inhibition of migration of non-endothelial cells [2]: did not inhibit the migration | density of hair follicles compared with vehicle-treated skin [3]: three-fold increased density of hair follicles | migration, percentage of maximal migration ([4]; 10 ng/ml bFGF plus PEDF, FIG. 1): considerably less migration was observed | migration toward different angiogenic inducers ([4]; 0.1 μg/ml PEDF, aFGF, bFGF, IL-8, PDGF, VEGF, FIG. 3): considerably inhibited; also recorded: inhibited endothelial cell migration toward every angiogenic inducer we tested | potency at inhibiting endothelial cell migration, dose response ([4]; migration towards bFGF, FIGS. 4 and 5): active at sub-nanomolar concentrations | tumors moderately to strongly positive for neurofilament staining / tumors treated (SK-N-BE(2) tumors): 6/6
